According to the supplement of paper PMC9170038:

Experiments:
[1] = test system: MS2 coat protein; test: apparent KD of MS2 coat protein, switch ON state; designed switch direction (-1 OFF switch, 1 ON switch): -1; higher = weaker reporter binding; conditions: FMN input: 0 or 200 uM; Eterna round: R93 (includes R88 designs)
Summary of the method: (§1)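 Each design's apparent KD comes from the median of binding-curve fits to its normalised clusters. Those clusters carried RNA switches transcribed on-chip from Illumina sequencing clusters. SNAP-549-labelled MS2 coat protein was titrated onto them in twofold steps (0.7 or 1.5 nM to 3 µM; per step 0.8–1.5 h down to 10–20 min). Conditions were 100 mM Tris-HCl pH 7.5, 80 mM KCl, 4 mM MgCl2, without or with constant ligand.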

[2] = test system: MS2 coat protein; test: apparent KD of MS2 coat protein, switch OFF state (with FMN for OFF switches, without FMN for ON switches); designed switch direction (-1 OFF switch, 1 ON switch): -1; higher = weaker reporter binding; conditions: FMN input: 0 or 200 uM; Eterna round: R93 (includes R88 designs)
Summary of the method: as §1

Sequence	apparent KD of MS2 coat protein [1]	apparent KD of MS2 coat protein [2]
AAAAAACAUGAGGAUCACCCAUGUCAGGAUAUCCGGUUAAAAAAAAAAAAAAGGCGUUGGAGAAGGGACAUUCC [Chica Displaced 9 - Jieux - Exclusion 1]	25.7 nM	33.4 nM
AAGAAACAUGAGGAUCACCCAUGUCAGGAUAUGCAGGACUGACGAAAGUCAGUCCAAAGCAGAAGGGACUAGAA [8-pair stack]	29.9 nM	56.5 nM
CCUGAACAUGAGGAUCACCCAUGUGAGGAUAUGAUGCGAAUAAAGAAAGAAGAAAGCAUCAGAAGGCACAUAGG [Mod of Disincluded 3 v.4]	28 nM	43.4 nM
AGCUAGACAGGAUAUACGAACAUGUCAAAAGACGUAAGGGAACAUGAGGAUCACCCAUGUAGAAGGGUCUAGCA [Diamond 50]	28.5 nM	63.9 nM
AAGAAGUCAGGAUAUGCCAGAGAACAAGAAAGUGAAGAAUAGCAGAAGGGACAUGAGGAUCACCCAUGUAAAGA [Opal 11]	46.9 nM	34.5 nM
AACAAGACAGGAUAUACAUGAGGAUCACCCAUGUGAGAAUAAAGUAGCGUAACACAAAGUAGAAGGGUCAUGGA [Ruby 7]	29.7 nM	57.6 nM
AGCUAGUCAGGAUAUACGAACAGCUCAAAAGAGCUGAAGGGACAUGAGGAUCACCCAUGUAGAAGGGACUAGCA [Mat - Exclusion 2 - JL mod - D27]	24.5 nM	89.6 nM
AAAUAGCAAGGAUAUACAUGAGGAUCACCCAUGUAAGGAUGGAAAGUAAUAGAAGAAAGUAGAAGGUGCAAAUA [Ex 3 Tesla 4]	31.7 nM	36 nM
AACAGUACAGGAUAUACAUGAGGAUCACCCAUGUGAGAAUUAAGUGGAGAACCACAAAGUAGAAGGGUACUGGA [Mat - Exclusion 3 - JL mod - D2]	37.1 nM	250 nM
AGUUGGCGAGGAUAUACAUGAGGAUCACCCAUGUGAGAGAAAAAAAGAAGAAAAAAAAGUAGAAGGCGCUGACA [Mat - Exclusion 3 - Lego mod - D43]	44.2 nM	103 nM
AAAAAGUCAGGAUAUGCAGAUAAAAAAACGAAAAAAAAUCUGCAGAAGGGACAUGAGGAUCACCCAUGUAAAAA [Ex 4 May 5]	48.5 nM	40.4 nM
AGAAAGACAGGAUAUACAUGAGGAUCACCCAUGUAAAAGAAAGAAAAGGGAAAGAAAAGUAGAAGGGUCAAAGA [Ruby 64]	22.1 nM	42.1 nM
AAGAAAGCAGGAUAUACAUGAGGAUCACCCAUGUAAAAGAAAGAAAAGGGAAAGAAAAGUAGAAGGGCUAAGAA [User/Heqamaatre-setpenamun Ramesses IV]	27.2 nM	74.1 nM
CUCUAGUGAGGAUAUACAAGAAAAGAAAAGAAAGAAAAGAAGUAGAAGGCACAUGAGGAUCACCCAUGUAAGAA [EteRNA is fun!]	24.8 nM	30.2 nM
AGCUAGUGAGGAUAUGCGAACAUGUCAAAAGACGUGAAGGGACAUGAGGAUCACCCAUGUAGAAGGCGCUAGCA [JL 74% mod 2]	33 nM	32.7 nM
AGAAAACAUGAGGAUCACCCAUGUCAGGAUAUGUAAAAGAAAAGAAAAGAAAGAAGAAGCAGAAGGGACAAGAA [Sekhemkhet]	28.8 nM	36.8 nM
AAGAAACAUGAGGAUCACCCAUGUCAGGAUAUGUAAAAGAAAAGAAAAGAAAGAAGAAACAGAAGGGACAAAGG [Neferkaure]	83.9 nM	126 nM
AAAAAGAAAGGAUAUACGAACAUGUCAAAAGACGUGAAGGGACAUGAGGAUCACCCAUGUAGAAGGUUCAAAAA [JL Half Open 22]	35.8 nM	17.1 nM
AAAUGAUGAGGAUAUACAUGAGGAUCACCCAUGUGUAAAAAUAAAUACACAAAAGAAAGUAGAAGGCAUCAAAA [Ex 3 May 12]	22.7 nM	99 nM
ACAGUUACAGGAUAUACAAGGGAAAAUAAAAAUAAACUUCAACAUGAGGAUCACCCAUGUAGAAGGGUAACUGA [Ex2 Design 199: Random 14]	35.5 nM	112 nM
GAAAAGUGAGGAUAUACAUGAGGAUCACCCAUGUGUAUAAAAAAAUACACAAAAGAAAGUAGAAGGCACUAAAA [Mat - Exclusion 3 - Mayanna mod - D111]	25.8 nM	65.9 nM
AAAAACGGAGGAUAUGCAAAAAAAAAAAAAAAAAAAAAAAAACAUGAGGAUCACCCAUGUAGAAGGCCGAAAAA [Diamond]	25.6 nM	36.9 nM
AAAUAGCAAGGAUAUACAUGAGGAUCACCCAUGUGAAAAUGAUACGUAAUAGAAUAGAGUAGAAGGUGCAAAUA [Ex 3 Tesla 7]	25.1 nM	28.7 nM

Sequence	apparent KD of MS2 coat protein [1]	apparent KD of MS2 coat protein [2]
GGUUGGCGAGGAUAUACAUGAGGAUCACCCAUGUGAGAGAAUAAAGUGAGAAAGAAAAGUAGAAGGCGCUGACG [salish99-ex3-44]	63.7 nM	116 nM
AGUAGUACAGGAUAUACAUGAGGAUCACCCAUGUGAAAAGAAAGUGGCGUACCACAAAGUAGAAGGGUACUACA [Mat - Exclusion 3 - JL mod - D34]	33.7 nM	152 nM
AAAAAGCGAGGAUAUACAUAGCUAAGACGUGUGAGCGAAAAACAUGAGGAUCACCCAUGUAGAAGGCGCAAAAA [Exclusion2-03]	18.2 nM	16.9 nM
AAGAAGAUAGGAUAUACAAAAUAAAAGAAAAGAAAGAAAGAACAUGAGGAUCACCCAUGUAGAAGGGUCAAGAA [Kheperkare Senusret I]	54.6 nM	56.5 nM
AACAGUACAGGAUAUACAUGAGGAUCACCCAUGUGAAAAUUAAGUGGAAAACCACAAGGUAGAAGGGUACUGGA [Mat - Exclusion 3 - Eli mod - D63]	21.6 nM	78.7 nM
AAAAACGUAGGAUAUACAUGAAAAAAAAAAAAAAAAAAAAGACAUGAGGAUCACCCAUGUAGAAGGGCGAAAAA [water's exclusion 2]	91.9 nM	76.8 nM
AACAGUACAGGAUAUACAUGAGGAUCACCCAUGUAAAAUAAAUAAAAAUAAAAAGGGAGUAGAAGGGUACUGGA [Moding Maslow revisited (73) 19]	37.2 nM	50.3 nM
CUCUAGUCAGGAUAUACAAGAAAAGAAGAGAAAGAAAAGAAGUAGAAGGGACAUGAGGAUCACCCAUGUAAGAA [EteRNA is fun!]	50.9 nM	48.2 nM
AGGGAACAUGAGGAUCACCCAUGUGAGGAUAUUGAAAAGAAAAGAAAAGAAAGAAGAACAAGAAGGUACAAGAA [Meryre Pepi I]	21.8 nM	24.8 nM
AGGAUGUCAGGAUAUGUGUAAAGAAUAAAACAAAUAACAACACAGAAGGGACAUGAGGAUCACCCAUGUUAAGA [May 44]	36.8 nM	55.7 nM
AGUGAGUGAGGAUAUCACUGAAGAAUAAAAGAAAUAACGAGUGAGAAGGCACAUGAGGAUCACCCAUGUACACA [May 63]	24.1 nM	18.3 nM
AUCAUGUCAGGAUAUCAGUAGUAAAAAAAAAAAAUUACUACUGAGAAGGGACAUGAGGAUCACCCAUGUCCAAA [EX4 306: Super Stable 6]	32.1 nM	46.2 nM
AAAAAACAUGAGGAUCACCCAUGUGAGGAUAUCCAGAAGGGAAUAAAAUAACACGAAAGGAGAAGGCGCAAAAA [Ex 1 May 35]	35.8 nM	31.1 nM
GGAAAACAUGAGGAUCACCCAUGUAAGGAUAUGCUAGGGAAGGAAAAAAACCCACCAGGCAGAAGGUACUAAAG [Janelle Amethyst 18 Mod 5 - Jieux - Exclusion 1]	22.9 nM	41.4 nM
AAGAAACAUGAGGAUCACCCAUGUAAGGAUAUGAAAAAGAAAAGAAAAGAAAGAAGAAUCAGAAGGUACAAAGG [Nakhtnebtepnefer Intef III]	24.1 nM	26.1 nM
AGCUAACAUGAGGAUCACCCAUGUCAGGAUAUGCAAAGAUCGAUCGAACGAUCGAUAAGCAGAAGGGACACUGA [Amethyst 94]	27.1 nM	47.5 nM
AUAAAGAGAGGAUAUACAUGAGGAUCACCCAUGUAAGAAAUAAAAUAAAUAAAGGGAAGUAGAAGGCUCAAAUA [Denovo 2]	28 nM	42.5 nM
AGCUAGUCAGGAUAUACGAACAUGACAAAAGACGUGAAGGGACAUGAGGAUCACCCAUGUAGAAGGGACUAGCA [74%, Web mod - With 1 less U's]	38.7 nM	89.7 nM
GAAUGCAGAGGAUAUACGGGAUAGCAUCGAAAGAUGCUAAAACAUGAGGAUCACCCAUGUAGAAGGCUGCAGAA [JL Mod 02]	58 nM	144 nM
CUCAAGUUAGGAUAUAGAAGAAAAGAAGAGAAAGAAAAGAACUAGAAGGAACAUGAGGAUCACCCAUGUAAGAA [EteRNA is fun!]	31.2 nM	20.5 nM
AGUUGGCGAGGAUAUACAUGAGGAUCACCCAUGUGAAAUAAAUAAAAAAUAAAAGGGAGUAGAAGGCGCUGACA [73%, Moding Norbert Elias, 17]	43.6 nM	82.3 nM
AAGAAAGUAGGAUAUACAAGGAAGAAAGAAAAGAAAAGAAAACAUGAGGAUCACCCAUGUAGAAGGACUUAGAA [EteRNA is fun!]	27.5 nM	18.7 nM
